Assay results from PMC5752674, “Redox regulation of PEP activity during seedling establishment in Arabidopsis thaliana” (Nature Communications, 2018).

What was measured:
[1] = target: PRIN2 in isolated chloroplasts of a 35S:PRIN2 line (Arabidopsis thaliana) (UniProt Q9XIK0); assay: non-reducing SDS-PAGE with immunoblot; protein extracts of isolated chloroplasts (35S:PRIN2 line; WT plants kept in light or 48 h in the dark) or of Arabidopsis cell culture (dark, light, light with 10 mM H2O2, DCMU, MV, high light), nonreducing conditions, anti-PRIN2 polyclonal antibody
[2] = target: T1, PRIN2 (PLASTID REDOX INSENSITIVE2), recombinant without transit peptide (Arabidopsis thaliana) (UniProt Q9XIK0); assay: competition EMSA; settings: EMSA with 3 ug PRIN2 per reaction; buffer, salt, pH and temperature not given in the material
T1 sequence: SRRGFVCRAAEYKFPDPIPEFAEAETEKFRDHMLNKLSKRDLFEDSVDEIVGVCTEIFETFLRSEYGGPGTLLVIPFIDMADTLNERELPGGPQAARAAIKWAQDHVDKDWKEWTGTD

[3] = target: PRIN2 Cys115Ser (C2S) in transgenic prin2-2 + C2S lines (Arabidopsis thaliana) (UniProt Q9XIK0); assay: SDS-PAGE with immunoblot; protein of transgenic prin2-2 lines with PRIN2 variants (Supplementary Figs. 4c and 5); conditions not shown
[4] = target: endogenous PRIN2 of Arabidopsis (Arabidopsis thaliana (endogenous in Col-0 plants and cell culture)) (UniProt Q9XIK0); assay: non-reducing SDS-PAGE with immunoblot; protein extracts of isolated chloroplasts (35S:PRIN2 line; WT plants kept in light or 48 h in the dark) or of Arabidopsis cell culture (dark, light, light with 10 mM H2O2, DCMU, MV, high light), nonreducing conditions, anti-PRIN2 polyclonal antibody
[5] = target: recombinant Arabidopsis PRIN2 WT (PLASTID REDOX …2), without the transit peptide (Arabidopsis thaliana) (UniProt Q9XIK0); assay: non-reducing SDS-PAGE; purified recombinant protein (1 ug), untreated (air), with 5 mM DTT or other DTT concentrations, or with 2 mM H2O2; 15% polyacrylamide, nonreducing conditions, Coomassie Brilliant Blue; disulfide-linked dimer to monomers
[6] = target: T2, PRIN2 (PLASTID REDOX …2), recombinant without transit peptide (Arabidopsis thaliana, UniProt Q9XIK0 62-179); assay: competition EMSA; 50-fold excess over labeled ycf1; EMSA with 3 ug PRIN2 per reaction; buffer, salt, pH and temperature not given in the material; settings: protein: recombinant, tags: His (pET-His1a), label: none, blunt
T2 sequence: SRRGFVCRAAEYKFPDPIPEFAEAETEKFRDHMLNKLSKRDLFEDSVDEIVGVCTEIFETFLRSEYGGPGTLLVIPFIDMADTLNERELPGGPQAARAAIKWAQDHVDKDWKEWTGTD

[7] = target: T2, PRIN2 (PLASTID REDOX …2), recombinant …; assay: EMSA; 3 ug protein; competed by 50-fold unlabeled ycf1; EMSA with 3 ug PRIN2 per reaction; buffer, salt, pH and temperature not given in the material; settings: tags: His (pET-His1a), label: biotin 3' end (Biotin-14-dCTP), blunt
[8] = target: the molecule itself; assay: SDS-PAGE with immunoblot; input protein extracts of protoplasts transformed with PRIN2-cMyc or TRXz-HA, probed with anti-cMyc or anti-HA; whether reducing or not is not stated

## PRIN2 in isolated chloroplasts of a 35S:PRIN2 line (from UniProt Q9XIK0 70-179) (natural protein)
[1]
  stoichiometry N: 2

## GAAACAGTATAACATGACTTATATAGCCATGTCAACCAATGTAAAATGGATAAGATCCTTTTAGTTTAGATTCATAAAAAATTTTTTGTAATCGATGAAATAAATTAGAAGCGAATCCACATACATAGAAATAGAATTGCTCTAGGAATATTTTTTCCAAATCATATGAATACGATTGAATACGATCCGTAGTGGGT (double strand) [psbA promoter competitor (psbA_197)]
[2]
  binding: binds

## PRIN2 Cys115Ser (C2S) in transgenic prin2-2 + C2S lines (from UniProt Q9XIK0 70-179) (natural protein)
[3]
  stoichiometry N: 2

## endogenous PRIN2 of Arabidopsis (from UniProt Q9XIK0 70-179) (natural protein)
[4]
  stoichiometry N: 2

## recombinant Arabidopsis PRIN2 WT (PLASTID REDOX …2), without the transit peptide (from UniProt Q9XIK0 70-179) (natural protein)
[5]
  stoichiometry N: 2

B1: rpoB promoter competitor (dsDNA)
DNA 1: TATGGTATGCAATCGAATTGGAATATGTAATATCATAGGTGAAAATGAAATTAC
DNA 2: GTAATTTCATTTTCACCTATGATATTACATATTCCAATTCGATTGCATACCATA
[6]
  binding result: binds

B2: clpP promoter competitor (dsDNA)
DNA 1: CGAAACCCCAATTTTACGTTTCCACATCAAAGTGAAATAGAGAA
DNA 2: TTCTCTATTTCACTTTGATGTGGAAACGTAAAATTGGGGTTTCG
[6]
  binding result: binds

B3: ycf1 promoter probe (dsDNA)
DNA 1: CCATTCATTTAATATCCCTTTGGTGTCATTGACATAAGAGAT
DNA 2: ATCTCTTATGTCAATGACACCAAAGGGATATTAAATGAATGG
[7]
  binding result: binds

B4: psaA U region competitor (dsDNA)
DNA 1: TTTTTTAATTATAAAAAAGGGTCCGTTGAGCACCCTATCCAT
DNA 2: ATCCATAGGGTGCTCAACGGACCCTTTTTTATAATTAAAAAA
[6]; as printed, strands mismatch near the 3' end of strand 1 (possible misprint)
  binding result: binds

B5: PRIN2-cMyc (full-length PRIN2 fused to a cMyc tag) (natural protein, Arabidopsis thaliana, UniProt Q9XIK0 68-179, looked up)
chain: CRAAEYKFPDPIPEFAEAETEKFRDHMLNKLSKRDLFEDSVDEIVGVCTEIFETFLRSEYGGPGTLLVIPFIDMADTLNERELPGGPQAARAAIKWAQDHVDKDWKEWTGTD
notes: also called pRT104-PRIN2-cMyc; source: Arabidopsis Ler suspension culture protoplasts, transiently transformed, in protein extract
[8]
  stoichiometry N: 2

B6: TRXz-HA (full-length Thioredoxin z fused to an HA tag) (natural protein, Arabidopsis thaliana, UniProt Q9M7X9 82-183, looked up)
chain: AQELQELVKGDRKVPLIVDFYATWCGPCILMAQELEMLAVEYESNAIIVKVDTDDEYEFARDMQVRGLPTLFFISPDPSKDAIRTEGLIPLQMMHDIIDNEM
notes: also called pRT104-TRXz-HA; source: Arabidopsis Ler suspension culture protoplasts, transiently transformed, in protein extract
[8]
  stoichiometry N: 2
